Experimental data from article PMC10023157, “Peptides that Mimic RS repeats modulate phase separation of SRSF1, revealing a reliance on combined stacking and electrostatic interactions”.

Experiments:
Assay in all cases: not stated; Fluorescence polarization: 100 mM ER4 peptide, 400 mM Arg/Glu, pH 6.5; temperature not stated; three technical replicates
Conditions in all cases: protein: recombinant; tags: SUMO (pSMT3) His tag removed by Ulp1
[1] = target: SRSF1 T248C (human, UniProt Q07955 1-248, C16S;C148S;T248C)
[2] = target: SRSF1 NoC (human, UniProt Q07955 1-248, C16S;C148S)
[3] = target: SRSF1 N220C (human, UniProt Q07955 1-248, C16S;C148S;N220C)

Measured: binding result

Sequence of SRSF1 NoC (Q07955 whole entry C16S/C148S): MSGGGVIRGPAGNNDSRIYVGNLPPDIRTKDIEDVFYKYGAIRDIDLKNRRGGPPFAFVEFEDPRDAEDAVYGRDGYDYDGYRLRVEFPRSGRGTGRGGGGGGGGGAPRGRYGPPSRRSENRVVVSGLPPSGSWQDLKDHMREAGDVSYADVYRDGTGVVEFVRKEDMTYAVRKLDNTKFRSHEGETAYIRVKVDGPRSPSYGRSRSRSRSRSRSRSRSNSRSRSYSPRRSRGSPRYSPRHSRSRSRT
Sequence of SRSF1 N220C (Q07955 whole entry C16S/C148S/N220C): as the sequence (Q07955 whole entry C16S/C148S) above, with N220C counted along it
Sequence of SRSF1 T248C (Q07955 whole entry C16S/C148S/T248C): as the sequence (Q07955 whole entry C16S/C148S) above, with T248C counted along it

UCAGAGGA (ssRNA) [UCAGAGGA (SRSF1 cognate RNA)]
binds: [1] | [2] | [3]
